Assay results taken from article PMC11116813, “Bipartite binding interface recruiting HP1 to chromosomal passenger complex at inner centromeres” (The Journal of Cell Biology, 2024).
Values belong to the binder of their own block, whether it stands above or below them.

Key:
Details in all cases: both partners purified
[1] = biological target: T1, full-length human HP1α WT (hHP1α), recombinant (human, UniProt P45973 1-191); test: ITC; VP-ITC, 10 μM INCENP fragment in the cell, 100 μM HP1α dimer in the syringe, 20°C, 10 mM Tris pH 8.0, 150 mM NaCl, 1 mM DTT (Fig. 2C); one-site model
T1 construct: heterochromatin protein 1 alpha (HP1α), human, full length; Used as a dimer; The 6His-MBP tag was removed with TEV protease; also called HP1α (full-length, FL); HP1α dimer; source: E. coli BL21 DE3 (pCold), purified (Amylose Resin, TEV cleavage, Ni-NTA flow-through, HiTrap Q)

[2] = biological target: T1, full-length human HP1α WT (hHP1α), …; test: ITC; VP-ITC, 10 μM INCENP peptide or fragment in the cell, 100 μM HP1α full-length or CSD dimer in the syringe, 20°C, 20 mM NaPO4 pH 7.0, 150 mM NaCl, 1 mM DTT (Fig. 2D, Fig. 3D and E); one-site model
[3] = biological target: T1, full-length human HP1α WT (hHP1α), …; test: ITC; iTC200, full-length HP1α dimer in the cell (60 μM for hINCENP, 80 μM for hSgo1), 600 μM hINCENP or 800 μM hSgo1 fragment in the syringe, 25°C, 20 mM NaPO4 pH 7.0, 150 mM NaCl, 1 mM DTT (Fig. 6A, Fig. S5A); one-site model
[4] = biological target: T1, full-length human HP1α WT (hHP1α), …; test: pull-down; 10 μM full-length hHP1α mixed with 5 μM GST-tagged hINCENP -6His fragments in 20 mM NaPO4 pH 7.0, 150 mM NaCl, 1 mM DTT, 30 min at 4°C; Glutathione Sepharose 4B; CBB staining

T1 sequence (P45973 whole entry, the tested form may be a part): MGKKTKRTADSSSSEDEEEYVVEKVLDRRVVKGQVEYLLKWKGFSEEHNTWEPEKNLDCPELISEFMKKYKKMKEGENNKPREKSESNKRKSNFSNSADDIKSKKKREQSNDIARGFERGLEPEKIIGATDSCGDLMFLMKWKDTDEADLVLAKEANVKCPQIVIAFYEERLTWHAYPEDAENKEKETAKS

Kd [1]: 42 nM
B1: human INCENP (121-270) WT -6His, GST removed (domain or fragment, UniProt Q9NQS7 121-270, looked up)
chain: LRRVTRAAAAAAAATMALAAPSSPTPESPTMLTKKPEDNHTQCQLVPVVEIGISERQNAEQHVTQLMSTEPLPRTLSPTPASATAPTSQGIPTSDEESTPKKSKARILESITVSSLMATPQDPKGQGVGTGRSASKLRIAQVSPGPRDSP
notes: The methods describe no removal of the 6His tag; source: E. coli BL21 Codon Plus (pGEX6P1), purified (Ni-NTA, PreScission cleavage, Glutathione Sepharose flow-through, SEC)

binding result [2]: binds
B2: human INCENP (121-210) -6His, GST removed (Fig. 2D) (domain or fragment, UniProt Q9NQS7 121-210, looked up)
chain: LRRVTRAAAAAAAATMALAAPSSPTPESPTMLTKKPEDNHTQCQLVPVVEIGISERQNAEQHVTQLMSTEPLPRTLSPTPASATAPTSQG
notes: source: E. coli BL21 Codon Plus (pGEX6P1), purified (Ni-NTA, PreScission cleavage, Glutathione Sepharose flow-through, SEC)

Kd [3]: ~4 µM
B3: human Sgo1 fragment (405-494), Tyr-added, GST removed (domain or fragment)
chain: YAKRALKYTDEKETEGSKPTKTPTTTPPETQQSPHLSLKDITNVSLYPVVKIRRLSLSPKKNKASPAVALPKRRCTASVNYKEPTLASKLR
notes: tyrosine residue inserted after the PreScission site, to determine the concentration; Sgo1 (shugoshin 1), human, residues 405-494, contains the canonical PVI motif; also called Sgo1 fragment containing the PVI motif (residues 405–494); Sgo1 405–494; source: E. coli BL21 Codon Plus (pGEX6P1), purified (Glutathione Sepharose, PreScission cleavage, SEC)

binding result [2]: binds
B4: human INCENP (160-210) -6His, GST removed (domain or fragment, UniProt Q9NQS7 160-210, looked up)
chain: HTQCQLVPVVEIGISERQNAEQHVTQLMSTEPLPRTLSPTPASATAPTSQG
notes: INCENP, human, residues 160-210; Isotope-labelled (15N or 13C/15N) in the NMR experiments and unlabelled in ITC; also called 15N-INCENP (160–210) -6His; 13C/15N-INCENP (160–210) -6His; source: E. coli BL21 Codon Plus (pGEX6P1), purified (Ni-NTA, PreScission cleavage, Glutathione Sepharose flow-through, SEC); for NMR grown in M9 medium with 15N-ammonium chloride with or without 13C-glucose; not …

binding result [4]: binds
B5: GST-tagged human INCENP (160-210) -6His (domain or fragment, UniProt Q9NQS7 160-210, looked up)
chain: HTQCQLVPVVEIGISERQNAEQHVTQLMSTEPLPRTLSPTPASATAPTSQG
notes: INCENP, human, residues 160-210; also called INCENP fragment 160–210; source: E. coli BL21 Codon Plus (pGEX6P1), purified (non-cleaved version, SEC); not shown: His6, C-terminal, kept
